Measurements published in publication PMC5017906.

Biological target: nAChRs on CA1 hippocampal interneurons (not stated (rat brain slices in the text, NMRI mice in the methods))

B1: Recombinant human GST-tagged Lypd6 (LY6/PLAUR domain-containing 6), Q86Y78 23-147 (natural protein)
chain: AQSRDFTVKDIIYLHPSTTPYPGGFKCFTCEKAADNYECNRWAPDIYCPRETRYCYTQHTMEVTGNSISVTKRCVPLEECLSTGCRDSEHEGHKVCTSCCEGNICNLPLPRNETDATFATTSPIN
B1 showed an attenuation of inward currents induced by the non-specific nAChR agonist DMPP (50 μM) in CA1 hippocampal interneurons in the presence of 6 μM Lypd6, whole-cell patch clamp of 74.8% and an average reduction of inward currents induced by nicotine (100 μM) in CA1 hippocampal interneurons in the presence of 6 μM Lypd6, whole-cell patch clamp at −60 mV of 57.4%.
